Entries after “also recorded” stand apart in the source; their conditions may differ. Where no end group is shown, it is not given here. [ ]: non-standard residue; d: D form.
Molecular target: ABCA1 (Mus musculus, UniProt P41233)
Test: Cholesterol efflux from [3H]cholesterol-labeled ABCA1-expressing J774 mouse macrophages
Assay type: cell-based
Design: to upregulate cellular ABCA1 protein; endogenous in cells; host or cells: J774 mouse macrophages
Conditions: for ABCA1-dependent cholesterol efflux: macrophages with vs without cAMP; for efficiency of ABCA1 cholesterol efflux (concentration dependence): concentration dependence curves; for ABCA1-dependent cholesterol efflux at 30 μg/ml: 30 μg/ml peptide; for capacity to stimulate cholesterol efflux at 3 μg/ml: 3 μg/ml lipid-free peptide, ABCA1-expressing macrophages
Procedure: In some embodiments, a polypeptide known to mediate cholesterol efflux (e.g., helix 9/10 of Apo A-I) is used to screen for additional mediators of cholesterol efflux in a cell based assay. For example, cell lines in which cholesterol efflux can be enhanced using a cAMP analog that up-regulates ABCA1 protein expression (e.g., J774 macrophages) can conveniently be used to assess the ability of a polypeptide of the present invention to mediate cholesterol efflux. The cells are incubated with labeled cholesterol (e.g., [^3H]cholesterol) under conditions appropriate for cholesterol uptake by the cells. Thus, cAMP or cAMP analogs (e.g., CPT-cAMP) are incubated with the cells for a suitable time before the initiation of cellular cholesterol efflux, i.e., prior to contacting the cells with a test polypeptide. Measurement of labeled cholesterol appearing in the medium is used to determine the cholesterol efflux mediating activity of the test polypeptide.
J774 mouse macrophages labeled with [^3H]cholesterol were treated (20 h) with 22-hydroxycholesterol (10 μM)/cis-retinoic acid (10 μM) to upregulate cellular ABCA1 protein.
Mouse macrophages were labeled with [^3H]cholesterol and treated with a cAMP analog to induce ABCA1 expression. […] Km values were calculated using the Michaelis-Menton equation and GraphPad Prism4 software.
Inverted sequence peptides synthesized with all L-amino acids and all D-amino acids were tested for cholesterol efflux activity using ABCA1 expressing J774 macrophages.
Two peptide analogs were engineered; the first replacing glutamic acid residues (E) at position 8 and 15 with aspartic acid residues (D), i.e., E8, 15>D polypeptides, and the second, replacing E1, 7, 8, 15, 18, 19 with D, i.e., all D (Asp) polypeptide. Cholesterol efflux activity was determined using J774 macrophages treated with and without a cAMP analog to modulate ABCA1 expression.
The impact of the A12>L substitution was also tested for activity, which also expanded non-polar surface area.
1-palmitoyl-2-oleoyl-phosphatidylcholine (POPC) was used to evaluate the cholesterol efflux properties of a formulated polypeptide of the present invention. […] To test cholesterol efflux activity, J774 mouse macrophages were labeled with [^3H]cholesterol and treated with and without cAMP to modulate ABCA1 expression.

ABCA1, sequence (P41233 whole entry): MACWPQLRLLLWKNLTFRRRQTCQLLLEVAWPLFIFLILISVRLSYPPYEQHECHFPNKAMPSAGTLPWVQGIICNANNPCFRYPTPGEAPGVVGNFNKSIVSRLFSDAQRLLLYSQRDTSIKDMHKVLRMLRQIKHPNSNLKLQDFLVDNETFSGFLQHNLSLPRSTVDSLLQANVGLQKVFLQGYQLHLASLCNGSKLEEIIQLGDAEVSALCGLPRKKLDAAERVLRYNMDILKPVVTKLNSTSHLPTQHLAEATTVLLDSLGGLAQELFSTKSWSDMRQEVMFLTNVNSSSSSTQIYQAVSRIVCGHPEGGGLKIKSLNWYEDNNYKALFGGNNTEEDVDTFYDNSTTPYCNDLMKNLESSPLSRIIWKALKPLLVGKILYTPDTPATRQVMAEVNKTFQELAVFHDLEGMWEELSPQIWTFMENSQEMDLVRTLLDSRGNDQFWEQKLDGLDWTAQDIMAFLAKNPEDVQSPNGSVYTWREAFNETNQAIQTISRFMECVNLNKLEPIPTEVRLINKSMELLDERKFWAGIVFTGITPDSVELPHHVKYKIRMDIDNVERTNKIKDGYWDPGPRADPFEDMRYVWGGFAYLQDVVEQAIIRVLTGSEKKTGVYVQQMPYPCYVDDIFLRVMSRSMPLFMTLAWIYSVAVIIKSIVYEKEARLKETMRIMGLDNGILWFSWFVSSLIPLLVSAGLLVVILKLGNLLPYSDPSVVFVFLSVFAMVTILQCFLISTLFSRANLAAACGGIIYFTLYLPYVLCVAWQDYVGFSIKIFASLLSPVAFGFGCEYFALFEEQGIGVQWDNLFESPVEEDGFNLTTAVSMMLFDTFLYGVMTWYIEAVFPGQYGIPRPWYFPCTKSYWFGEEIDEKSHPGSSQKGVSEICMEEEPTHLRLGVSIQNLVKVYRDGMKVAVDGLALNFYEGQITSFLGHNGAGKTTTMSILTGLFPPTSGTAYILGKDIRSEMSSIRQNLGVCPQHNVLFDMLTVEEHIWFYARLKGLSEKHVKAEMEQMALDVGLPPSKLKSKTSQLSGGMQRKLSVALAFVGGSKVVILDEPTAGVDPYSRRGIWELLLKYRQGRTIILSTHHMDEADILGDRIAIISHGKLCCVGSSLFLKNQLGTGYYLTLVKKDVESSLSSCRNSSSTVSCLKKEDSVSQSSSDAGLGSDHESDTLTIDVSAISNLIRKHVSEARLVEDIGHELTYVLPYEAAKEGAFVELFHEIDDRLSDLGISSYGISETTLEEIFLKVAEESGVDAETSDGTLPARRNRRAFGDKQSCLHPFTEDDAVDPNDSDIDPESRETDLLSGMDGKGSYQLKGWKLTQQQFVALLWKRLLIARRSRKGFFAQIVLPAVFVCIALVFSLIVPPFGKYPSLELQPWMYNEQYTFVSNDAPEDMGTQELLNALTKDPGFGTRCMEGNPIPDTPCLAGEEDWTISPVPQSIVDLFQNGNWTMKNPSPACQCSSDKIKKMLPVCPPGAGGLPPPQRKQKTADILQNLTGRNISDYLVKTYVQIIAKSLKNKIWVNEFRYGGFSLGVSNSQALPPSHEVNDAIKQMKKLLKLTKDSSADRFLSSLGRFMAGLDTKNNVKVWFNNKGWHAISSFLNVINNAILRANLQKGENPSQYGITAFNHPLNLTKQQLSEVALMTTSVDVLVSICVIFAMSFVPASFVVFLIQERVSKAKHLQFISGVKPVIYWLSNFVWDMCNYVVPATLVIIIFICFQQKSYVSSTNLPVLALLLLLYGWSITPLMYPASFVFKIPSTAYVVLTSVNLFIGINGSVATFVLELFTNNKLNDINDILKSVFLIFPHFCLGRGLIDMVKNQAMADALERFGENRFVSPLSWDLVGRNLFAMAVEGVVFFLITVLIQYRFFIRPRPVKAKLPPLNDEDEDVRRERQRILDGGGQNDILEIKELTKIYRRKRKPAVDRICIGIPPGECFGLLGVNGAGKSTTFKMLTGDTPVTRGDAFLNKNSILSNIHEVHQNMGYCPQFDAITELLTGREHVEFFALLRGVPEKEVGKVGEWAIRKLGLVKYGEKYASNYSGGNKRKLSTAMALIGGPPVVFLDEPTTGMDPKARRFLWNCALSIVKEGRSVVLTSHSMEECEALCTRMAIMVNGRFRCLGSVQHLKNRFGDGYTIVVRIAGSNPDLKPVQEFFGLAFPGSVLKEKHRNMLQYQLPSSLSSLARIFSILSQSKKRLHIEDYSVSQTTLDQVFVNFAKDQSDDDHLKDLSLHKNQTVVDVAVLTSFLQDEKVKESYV

| Substance | ABCA1-dependent cholesterol efflux | capacity to stimulate cholesterol efflux at 3 μg/ml | also measured |
| --- | --- | --- | --- |
| E1, 7, 8, 15, 18, 19>D: SEQ ID NO:5 with E1, 7, 8, 15, 18, 19 replaced with D (DVRSKLDDWFAAFRDFFDDFLARLKS; S1 amphipathic alpha-helix polypeptide core sequence selectively binds HDL, high-affinity ligand for ATP- binding cassette transporter A1 (ABCA1), ABCA1-lipid cholesterol efflux, ABCA1-stablization, anti-oxidant and anti-inflammatory activity) | retained high capacity to stimulate cholesterol efflux in an ABCA1-dependent manner |  |  |
| R3, 14, 23→Q3, 14, 23: SEQ ID NO:5 with arginines 3, 14, 23 changed to glutamine (EVQSKLEEWFAAFQEFFEEFLAQLKS; S1 amphipathic alpha-helix polypeptide core sequence selectively binds HDL, high-affinity ligand for ATP- binding cassette transporter A1 (ABCA1), ABCA1-lipid cholesterol efflux, ABCA1-stablization, anti-oxidant and anti-inflammatory activity) | greatly reduced efflux capacity |  | efficiency of ABCA1 cholesterol efflux (concentration dependence): reduced efflux efficiency |
| R23→Q: SEQ ID NO:5 with arginine 23 replaced by glutamine (EVRSKLEEWFAAFREFFEEFLAQLKS; S1 amphipathic alpha-helix polypeptide core sequence selectively binds HDL, high-affinity ligand for ATP- binding cassette transporter A1 (ABCA1), ABCA1-lipid cholesterol efflux, ABCA1-stablization, anti-oxidant and anti-inflammatory activity) |  |  | ABCA1-dependent cholesterol efflux at 30 μg/ml: mediated cholesterol efflux in an ABCA1 dependent manner; efficiency of ABCA1 cholesterol efflux (concentration dependence): high efficiency |
| EFRSKLEEWFAAFREFFEEFLARLKS (S2 amphipathic alpha-helix polypeptide core sequence selectively binds HDL, high-affinity ligand for ATP- binding cassette transporter A1 (ABCA1), ABCA1-lipid cholesterol efflux, ABCA1-stablization, anti-oxidant and anti-inflammatory activity) [SEQ ID NO:6] |  |  | cholesterol efflux efficiency/potency on per molecule (molar) basis versus apolipoproteins (Km in molar units): activity similar to full-length Apo A-I, Apo E, and the C-terminal (CT) domain of Apo E |
| R3→Q: SEQ ID NO:5 with arginine 3 replaced by glutamine (EVQSKLEEWFAAFREFFEEFLARLKS; S1 amphipathic alpha-helix polypeptide core sequence selectively binds HDL, high-affinity ligand for ATP- binding cassette transporter A1 (ABCA1), ABCA1-lipid cholesterol efflux, ABCA1-stablization, anti-oxidant and anti-inflammatory activity) |  |  | ABCA1-dependent cholesterol efflux at 30 μg/ml: mediated cholesterol efflux in an ABCA1 dependent manner; efficiency of ABCA1 cholesterol efflux (concentration dependence): high efficiency |
| SKLRALFEEAFERFAAFWEELKSRVE ([dS][dK][dL][dR][dA][dL][dF][dE][dE][dA][dF][dE][dR][dF][dA][dA][dF][dW][dE][dE][dL][dK][dS][dR][dV][dE]) | stimulate ABCA1 cholesterol efflux in a ABCA1-dependent manner |  |  |
| 22-mer: SEQ ID NO:5 truncated from the C-terminal end to 22 residues (EVRSKLEEWFAAFREFFEEFLA; S1 amphipathic alpha-helix polypeptide core sequence selectively binds HDL, high-affinity ligand for ATP- binding cassette transporter A1 (ABCA1), ABCA1-lipid cholesterol efflux, ABCA1-stablization, anti-oxidant and anti-inflammatory activity) |  | weakly active |  |
| EVRSKLEEWFAAFREFAEEFLARLKS ([dE][dV][dR][dS][dK][dL][dE][dE][dW][dF][dA][dA][dF][dR][dE][dF][dA][dE][dE][dF][dL][dA][dR][dL][dK][dS]) | promoted ABCA1 cholesterol efflux |  | ABCA1-dependent cholesterol efflux (listed as D-amino acid analog of SEQ ID NO:4): stimulate ABCA1 cholesterol efflux in a ABCA1-dependent manner |
| 23-mer: SEQ ID NO:5 with three residues deleted from the C-terminal end (EVRSKLEEWFAAFREFFEEFLAR; S1 amphipathic alpha-helix polypeptide core sequence selectively binds HDL, high-affinity ligand for ATP- binding cassette transporter A1 (ABCA1), ABCA1-lipid cholesterol efflux, ABCA1-stablization, anti-oxidant and anti-inflammatory activity) |  | weakly active |  |
| SKLRALFEEAFERFAAFWEELKSRVE (inverted peptide, ATI-5261 in reverse order) |  |  | ABCA1-dependent cholesterol efflux at 30 μg/ml: stimulated cholesterol efflux in an ABCA1-dependent manner |
| R3>F: SEQ ID NO:4 polypeptides with arginine at position 3 replaced by phenylalanine (EVFSKLEEWFAAFREFAEEFLARLKS; ATI-5261 amphipathic alpha-helix polypeptide core sequence selectively binds HDL, high-affinity ligand for ATP-binding cassette transporter A1 (ABCA1), ABCA1-lipid cholesterol efflux, ABCA1-stablization, anti-oxidant and anti- inflammatory activity) | relatively high-levels of cholesterol efflux |  | cholesterol efflux from macrophages not induced for ABCA1 (non-specific) (no cAMP): low-levels of cholesterol efflux |
| 25-mer: SEQ ID NO:5 lacking the C-terminal Ser26 (EVRSKLEEWFAAFREFFEEFLARLK; S1 amphipathic alpha-helix polypeptide core sequence selectively binds HDL, high-affinity ligand for ATP- binding cassette transporter A1 (ABCA1), ABCA1-lipid cholesterol efflux, ABCA1-stablization, anti-oxidant and anti-inflammatory activity) |  | retained high capacity to stimulate cholesterol efflux; also recorded: retained high activity |  |
| 18-mer: SEQ ID NO:5 truncated from the C-terminal end to 18 residues (EVRSKLEEWFAAFREFFE; S1 amphipathic alpha-helix polypeptide core sequence selectively binds HDL, high-affinity ligand for ATP- binding cassette transporter A1 (ABCA1), ABCA1-lipid cholesterol efflux, ABCA1-stablization, anti-oxidant and anti-inflammatory activity) |  | weakly active |  |
